{"source": "patent US20250108009A1", "about": "“METHOD FOR SYNTHESIZING HYBRID NANOPARTICLES COMPRISING APOLIPOPROTEINS” (MEPSGEN CO., LTD., priority 2022, published 2025)", "origin": "cited, not measured here", "conditions": "Bekard et al. 2011", "data": [{"substance": "insulin", "values": [{"measurement": "shear rate at which structural changes and aggregates are formed", "value": 200, "unit": "s⁻¹"}, {"measurement": "shear stress at which structural changes and aggregates are formed", "value": 1000, "unit": "dyne/cm^2"}]}]}
